Measured values as given in the DeepSol protein solubility set.

assay: soluble on expression in E. coli; label from the status in PepcDB or PDB records

| Sequence | soluble on expression in E. coli |
| --- | --- |
| MGSDKIHHHHHHMTAELLRLLENVLRVGVVTEIDVDEWRVRVSAGGLHTDWLRWDALRAGSFSVWIPPSVGEQVLLGCIGGNPETAVIIGSIYSAANPAPGSSSSELVIKAPDGATVRYDAAAGALEASGMKTARIVASVGVTLETPVVECTEHLVAKTFSFTEGGTMKGDVNHTGGAFKSNGVQADEHSHGNVLNGPGWSDGTR | not soluble |
| MGSDKIHHHHHHMIDKLEFFLALARERHFGRAAEECGVTQPTLSAAIRQLEEQLGVILVNRGSRFQGLTPEGQRVLEWARRIVSDSRTMREEMRAARKGLSGHMRLAAVPTTLSMVPLITAPFQEKHPDVTFSVLSTTSLQILALLENLEIDAGLTYLENEPLGRVTSVPLQIEQYHLVTAAGTALSDRESVTWKEVSDIRLCLLTADMQNRRIINQHFAEAGAVPKPTLESNSMIVLFSHVRTGRWASIMPYNVAKSFGFHEDIRMIPIVDPDVRHTVGLVATYREPFTPLVSALLHEARILGERNQVQ | not soluble |
| GMSLPHLSSGEVASVLPLGKQLTQTPSAALFKEHRLEVMRMVLPAGKQVGSHSVAGPSTIQCLEGEVEIGVDGAQRRLHQGDLLYLGAGAAHDVNAITNTSLLVTVVLVDRGGS | soluble |
| MGSDKIHHHHHHMLKSQEIRQKAPELDSLRLGSGWKSEELNKAQIIIESSFGHSHPGSAHLDTLVDEAFKSIDDNGGRGAKYFVTDICDGETQGHDGMNYSLASRDIMTNLMEIHVQATPFDAGIFIASCDKAVPAHLMAIARLDMPSILVPGGIMNAGPNMLTLEQIGTYNAQYERGEITKEQYEHYKQNACPSCGACSFMGTASTMQVMSEALGIALPGTALIPVTSKELKLAAKNAGKQILKLIELNIKPSEIMTKKAFENAIMVHAAIAGSSNCLLHIPAIAHELGMDIEPELFDEIHKKIPYILNIRPSGFYPGSYFWNAGGVPAIMEEIKEFLHLDVMTVTGKTLGENLEDLKNSGYYEEHDKLITSLGIKKEDVIRTKENPIQSQGAIAILKGNLAPGGAVVKHSAISKKLMQVVLKARVFNCEEDAIKSVLTKNIKPGDAVFVRYEGPKGSGMPEMFYTTEAIASDHELVDSTALITDGRFSGATRGPAIGHVSPEASEGGPIAFVQEGDLIKIDIPARKLDIIGTNGIEKSEKEIENILKERSQNWVKPAPRYTKGILGLYTRCASSPMKGGYME | not soluble |
| MKTALLLKTKSQPFDPYVEAFEKYGRDTAFIPVLRHKRVHEEQLRDKLKNVRKTYCGLIVTSQRVSETLDEALKQEDETERQKILMETPIFTVGPATDDSIRRLGFQQTHGKDCGRGEVLADLIEEWYTTTKQHKPLLFLVGEKHRDIIQRKLGDDRVDSLIVYATQELENTETQIKDTIRKHPTIDWIVAFSPTSICSLLNTFELKIATIGPTTGDYLKKLGTQPNVVSPAPNPESLASSIVAFDEENSS | soluble |
| MAHHHHHHMMLRRLFVFDAARATNMRFLTMTSEVRDNLTKQLSALKEECRGQGLDLADMSDASRVAMRTVQEGLTRVSVEDEIFKGKSITLSASMKAYTARLSNLQDEARSIQTEVDALLKMMWGTEAPTKAASFASPPRSTEEVGVSSSSAAAAAGGKGNETVDDEFIVEPPPLAKALGNDKRPAERVEAERVQGTAHKPVEEMRVEEIEVETIEVEVEPNESPADNMKITDITRELYERGVNFSDCLDARTLRQRYKDVLAGKISPGISPGTATSSPATAEANTNQPRMPQHRPYQQQQQQQQQQLNTNESGLAHDPYPNAYRKMVDPMKHVWELKNELAAEKGIDPKSVDLWSGKCKLEDHKLLYDYPSVQNYPIEVRQKGDIPR | not soluble |
| MGGSHHHHHHGMASALETNYLKRCFGNCLAQALAEVAKVRPSDPIEYLAHWLYHYRKTAKAKEENREKKIHLQEEYDSSLKEMEMTEMLKQEEYQIQQNCEKCHKELTSETVSTKKTIFMQEDTNPLEKEALKQEFLPGTSSLIPGMPQQVPPSESAGQIDQNFKMPQEINYKEAFQHEVAHEMPPGSKSPF | not soluble |
| MQHLTERMTQIAKLLNSSANNPDIDIPDFLTEIKDYSEFSVTDENGTYLHWDKFRRIHTEDTRMKWRAVKESRKKIQKPIDFPFEHQFWFCIPDSLQARLHLIDKSCGSSIGTSSLGGFGRSEQNRFLLKSLIMEEAITSAQLEGAATTRKVAKDMLKSQRKPKTKDEIMIVNNYHLMKKAVELKNTPLSVEMILDLHRIATSNAIENKAEPGQFRQDDEIFIADINGNSLYQPPPHGQVHTLMEEVCAFANNTYDGVENPFIHPVVQAIILHFLIGYIHPFGDGNGRTARALFYWFMLKNGYWLFEYISISRLLKNAPAQYAKSYLYAETDDLDLTYFIYYQCDIIKRAVADLEHYISDKQKHQQEFKAAIAQYTEKIGKLNQRQIGILQKAVEESGKIFTAQEIANQYGISLNTARSDLSKLGEYRFLVPFKSGNALEYVAPQDLLERLEKK | not soluble |
| MSLSKENIRKTSKIETKSKEFSRQNMIDLFDLYFYEDCPYQDESAELLRLVGRGKMRIVSRENGTSACAGDLAGYYEKKGLKVLNYFRDGENFKPGDAIFEAEGDIKLIFRFWRVSQTFLTMMCAIATKTASMVSEARRTNPDIIIATSRKTHPGARIFELKAVRAGGGDIHRNSLSDSIQISQNHLEVAGELGKLRAMKKIEIEPRSREEAFKYAEMSDIMLLDHLSPEELRELGPELKELNPELELAVGGIEAKRIPEYAPFVDIIVISAPYYANPLDFTTKIEREGHHHHHH | soluble |
| SLSFLYFNDNSKIANAPLKNRFEKTQKESLIIKNNNEDKKAKSKPKFYLIIDDVGYDEFMLEQFIKLNLKITYAIIPFLPKSMSLYKKLKNANKTVIIHFPMQSKHRNSIEKFHINIKDKKEEIHKKIEKAFKKYPDAKIMNNHMGSLITSNKDLMKIILEKLKEIDRYFFDSVTIAGSVPEIIGKEIGVKVEKRDVFLDSKDTEESVTKELEKAKNIARKNGMVKVIGHIWSKNTLKVLKKEGPDLNQEFEFDNLLNLYEETIR | soluble |
| MQTKNKQGVLLVNLGTPDEPTAPAVKRFLSQFLHDHRVVDMTRWLWCPILHGVILPIRSPKVAKLYESVWMEEGSPLMVYSKRQAKKLAQHLDMPVELGMTYGNPSLQSGFEALIAQGVEEVIVLPLYPQYSGTTTAAVSDGITKAFKQLPVMPAFSFIRDYHDHPMYIEALAHSVRQYWEEHGKGDYLLCSYHGIPKRYADNGDIYPQHCEATTRLLGEALGLSSDQIGMAYQSRFGREEWLQPYTDKTLETITSKGVKKIDIMTPAFSSDCLETLEEIAGENKEIFMEAGGEQFHYIPCLNDDDMHIDMMAELVRSKL | not soluble |
| MGSDKIHHHHHHMLSCHLTSPNLVPCETVDNRSSFQILFDHESIIKTYVPVMKLRFRQLQAFHAIVETGTVTGAAGLLGISQPGVSNLLSQLEDQAGMALFERLHGRLLPTPEAELLFAEVDTVMRGMSKVTQTMVDLKTRKLGQLQIASQHAMSFGFMPRLIARFASDRPELNISFQSQYSSKVQEWVWNGLFEIGVCEMPLLYDTLTVYPLYVETMLALHKDNPLARHEVLTPELLAGEPFIVMGQDHMTHRRLREAFQDAGVPLRTRVHSHLFKNLLSFVQEGMGVALLDRFMFDYDMQGDVITRPFRPTIRMDMCVITSKSRPMSQLGKEFLDLLLGELQHYSVEGRPLVPAERKRR | not soluble |
| RNRQQRPGTIKHGSALDVLLSMGFPRARAQKALASTGGRSVQTACDWLFSH | soluble |
| MAHHHHHHSLPIKIPDNLPAAKTLNEENIFFMDEDRAYHQDIRPLNIVIVNLMPTKIVTETQILRLIGNSPLQVNPTFIHTQTHKSQNTSKEHLIKFYETFEEIKNNKFDGMIVTGAPVETLSFENVDYWEELCRIFDWSVTNVTSTIHICWGAQAGLYHHYGIPKYELHEKLFGVFKHNLTERNIKLTRGFDDEFYAPHSRHTYVKREDIKKNPSLKILAESDEAGAYIVASENGKNIFVMGHAEYDGDTLNLEYIRDKNQGMNIKIPKNYFKDNDPEKGPMVTWRGHANLLFSNWLNYYVYQETPFELEG | soluble |
| MGSDKIHHHHHHMVMMSKQLTAQAPVDPIVLGKMGSSYGIRGWLRVFSSTEDAESIFDYQPWFIQKAGQWQQVQLESWKHHNQDMIIKLKGVDDRDAANLLTNCEIVVDSSQLPQLEEGDYYWKDLMGCQVVTTEGYDLGKVVDMMETGSNDVLVIKANLKDAFGIKERLVPFLDGQVIKKVDLTTRSIEVDWDPGF | not soluble |
